Here are results for 17 molecules from patent publication KR20220082776A (dated 2022).

Where a chain is given by its changes, count along the chain named.

The target in assay [1] is T1, 재조합 인간 TIGIT-His 단백질 (recombinant human TIGIT-His protein) (human, UniProt Q495A1 22-141).
T1 construct: All are treated here as one molecule; also called TIGIT-His(Sino); 항원; not shown: His tag
T1 sequence (looked up): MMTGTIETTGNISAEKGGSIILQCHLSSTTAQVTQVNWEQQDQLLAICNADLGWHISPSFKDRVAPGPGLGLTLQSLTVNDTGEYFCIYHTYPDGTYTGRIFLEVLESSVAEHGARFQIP
Nature of the assay: ELISA, plate coated with recombinant human TIGIT-His, anti-hIgG-HRP detection.

Assay [2] deals with T2, 재조합 인간 TIGIT-His 단백질 (recombinant human TIGIT-His protein) (human) (UniProt Q495A1).
T2 sequence (looked up): T1 sequence (looked up)
The experiment in a line: SPR, humanized antibodies; antigen not given.

Assay [3] addresses T3, 인간 TIGIT (human TIGIT on cells) (human, UniProt Q495A1 22-244).
T3 construct: whole, on cells; also called hTIGIT
T3 sequence (looked up): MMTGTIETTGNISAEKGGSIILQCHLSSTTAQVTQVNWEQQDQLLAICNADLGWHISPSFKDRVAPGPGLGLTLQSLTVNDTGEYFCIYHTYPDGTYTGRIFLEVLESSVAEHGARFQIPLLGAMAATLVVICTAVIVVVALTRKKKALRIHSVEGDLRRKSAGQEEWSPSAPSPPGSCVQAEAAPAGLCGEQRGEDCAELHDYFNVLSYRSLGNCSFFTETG
Nature of the assay: flow cytometry on artificial effector T cells expressing TIGIT.

Assay [4] deals with T2, 재조합 인간 TIGIT-His 단백질 (recombinant human TIGIT-His protein) (human). The experiment in a line: SPR, chimeric antibodies; antigen not given.
Assay [5] has as its target T3, 인간 TIGIT (human TIGIT on cells). Nature of the assay: flow cytometry on CD4 and CD8 T cells of anti-hCD3/28-activated human PBMC.
The target of assay [6] is T1, 재조합 인간 TIGIT-His 단백질 (recombinant human …). The experiment in a line: hybridoma culture medium; 도 1 is flow cytometry on anti-hCD3/28-activated human T cells, the sentence names recombinant human TIGIT-His.
For assay [7] the target is unchanged. Nature of the assay: ELISA, plate coated with recombinant human TIGIT-His, as in Example 3-(1).
Assay [8] has the same target. The experiment in a line: SPR; antigen not given.
The target is the same in assay [9]. Nature of the assay: method not named in the sentence (SPR of Example 7); antigen not given.

B1: chimeric-후보항체 clone 19D (antibody, V domains shown)
VH: EVQLQQSGPELVKPGASVKMSCKASGYTFSNYVMHWVKQKPGQGLEWIGYINPYNDGTKYNEKFKGKATLTSDRSSSTAYMELSSLTSEDSAVYYCARWRVNYYFDYWGQGTTLTVSS
VL: QIVLSQSPAILSASPGEKVTMTCRASSSVNYMHWYQQKPGSSPKAWISVTSNLASGVPARFSGSGSGTSYSLTISRVEAEDAATYYCQQWSSNPPWTFGGGTKLEIK
notes: Produced in Expi293; also called chimeric 19D
For B1, the binding result in assay [1] is given as “binds”.

B2: 인간화 후보항체 clone 62F (antibody, V domains shown)
VH: QVQLVQSGAEVKKPGASVKVSCKASGFTFTEYTMHWVRQAPGQGLEWIGGFNPNSGGSSYNQKFKGRATLTVDKSISTAYMELSRLRSDDTAVYYCARSSYYRFDLDYWGQGTTVTVSS
VL: DIQMTQSPSSLSASVGDRVTITCKASQDVKTAVAWYQQKPGKAPKLLIYSASFRYTGVPSRFSGSGSGADFTLTISSLQPEDFATYYCQQHYTTPWTFGQGTKVEIK
notes: Humanized; also called 인간화 후보항체 62F; hu62F
Regarding B2, the 결합력, fold higher than humanized clone 19D in [2] was 33 배. For the same molecule, in assay [3], the binding result is on record as “binds”.

B3: chimeric-후보항체 clone 62F (antibody, V domains shown)
VH: EVQLQQSGPELVKPGASVKISCKTSGFTFTEYTMHWVKQSHGKSLEWIGGFNPNSGGSSYNQKFKGKATLTVDKSSSTAFMELRSLTSEDSAAYYCARSSYYRFDLDYWGQGTTLTVSS
VL: DIVMTQSHKFMSTSVGDRVSITCKASQDVKTAVAWYQQKPGQSPQLLIYSASFRYTGVPDRFTGSGSGADFTFTISSVQAEDLAAYYCQQHYTTPWTFGGGTKLEIK
notes: also called chimeric 62F
With B3, the 결합력, fold higher than the control Oncomed-313M32 antibody in assay [4] is 30 배. Besides, the binding result in [5] is recorded as “binds”.

B4: clone 62F (hybridoma antibody) (antibody, V domains shown)
VH: B3 VH
VL: B3 VL
notes: Mouse hybridoma antibody
As for B4, the binding result in assay [6] was “binds”.

B5: chimeric-후보항체 clone 63F (antibody, V domains shown)
VH: EVQLEEFGGGLVQPGGSMKLSCVASGSTFSNYWMNWVRQSPEKGLEWVAEIRLKFNNYATHYVESVIGRFTISRDDSKSSVYLQMNNLRAEDTGIYYCTMVRRNWYFDVWGAGTTVTVSS
VL: QIVLTQSPAIMSAFPGEKVTLTCSASSSVSSSYLYWYQQKPRSSPKLWIYSTSNLASGVPARFSGSGSGTSYSLTISSMEAEDAASYFCHQWSSYPYTFGGGTKLEIK
On to B5, for which the 결합력, fold higher than the control Oncomed-313M32 antibody in assay [4] was 6 배.

B6: chimeric-후보항체 clone 75G (antibody, V domains shown)
VH: B5 VH with Q3N, F7S, S27V, N57D, I67K, K78E
VL: B5 VL with F14S, S32G, Q39K, R42G, N54D, S71F, S78N
notes: also called chimeric 75G
Regarding B6, the 결합력, fold higher than the control Oncomed-313M32 antibody in [4] was 30 배. Moreover, the binding result in assay [5] is given as “binds”.

B7: clone 75G (hybridoma antibody) (antibody, V domains shown)
VH: B5 VH with Q3N, F7S, S27V, N57D, I67K, K78E
VL: B5 VL with F14S, S32G, Q39K, R42G, N54D, S71F, S78N
notes: Mouse hybridoma antibody (culture medium)
Turning to B7, the binding result in [6] is recorded as “binds”.

B8: 인간화 후보항체 clone 19D (antibody, V domains shown)
VH: QVQLVQSGAEVKKPGASVKVSCKASGYTFSNYVMHWVRQAPGQRLEWIGYINPYNDGTKYNEKFKGRATLTSDRSASTAYMELSSLRSEDTAVYYCARWRVNYYFDYWGQGTLVTVSS
VL: DIQLTQSPSSLSASVGDRVTITCRASSSVNYMHWYQQKPGKAPKAWISVTSNLASGVPSRFSGSGSGTDYTLTISSLQPEDFATYYCQQWSSNPPWTFGQGTKVEIK
notes: Humanized; also called 인간화 후보항체 19D; humanized 19D
For B8, the binding result in assay [3] and in [7] was “binds” throughout.

B9: 인간화 후보항체 clone 63F (antibody, V domains shown)
VH: EVQLVESGGGLVQPGGSLRLSCAASGSTFSNYWMNWVRQAPGKGLEWVAEIRLKFNNYATHYVESVIGRFTISRDDSKNSVYLQMNSLKTEDTAVYYCTMVRRNWYFDVWGRGTLVTVSS
VL: EIVLTQSPATLSLSPGERATLSCSASSSVSSSYLYWYQQKPGLAPRLWIYSTSNLASGIPDRFSGSGSGTDYTLTISRLEPEDFAVYYCHQWSSYPYTFGQGTKLEIK
notes: Humanized; also called 인간화 후보항체 63F; humanized 63F
Take B9: in [2], the 결합력, fold higher than humanized clone 19D is 13 배. The binding result in [3] is reported as “binds”.

B10: 인간화 후보항체 clone 75G (antibody, V domains shown)
VH: B9 VH with S27V, N57D, I67K
VL: B9 VL with S32G, N54D
notes: Humanized; also called 인간화 후보항체 75G; humanized 75G
For the molecule B10, in assay [2], the 결합력, fold higher than humanized clone 19D is 36 배. Moreover, in assay [3], the binding result is recorded as “binds”.

B11: T21.13 (antibody, V domains shown)
VH: QVQLVQSGAEVKKPGASVKVSCKASGYTFTSYVMHWVRQAPGQRLEWIGYINLNNDGTKYNEKFKGRATLTSDKSASTAYMELSSLRSEDTAVYYCARWRVYYYAMDYWGQGTLVTVSS
VL: EIVLTQSPATLSLSPGERATLSCNASSSVDYVHWYQQKPGQAPRPWIYEISKLASGIPARFSGSGSGTDYTLTISSLEPEDFAVYYCQLWNYPLITFGQGTKVEIK
notes: Gene engineered variant of 58E; also called clone T21.13
In the case of B11, the binding result in assay [8] is reported as “binds”.

B12: T21.33 (antibody, V domains shown)
VH: B11 VH
VL: B11 VL with D69S
notes: also called clone T21.33
Regarding B12, the binding result in assay [9] is “binds”.

B13: chimeric-후보항체 clone 58E (antibody, V domains shown)
VH: EVQLQQSGPELVKPGASVKMSCKASGYTFTSYVMHWVKQKPGQGLEWIGYINLNNDGTKYNEKFKGKATLSSDKSSSTAYMELSSLTSEDSAVYYCARWRVYYYAMDYWGQGTSVTVSS
VL: EIVLTQSPAITAASLGQKVTITCSASSSVNYMHWYQQKSGTSPRPWIYEISKLASGVPARFSGSGSGTSYSLTISSMEAEDAAIYYCQLWNYPLITFGAGTKLELK
notes: also called chimeric 58E; 후보항체 58E
For the molecule B13, the 결합력, fold higher than the control Oncomed-313M32 antibody in [4] is 13 배. The binding result in assay [5] is reported as “binds”.

B14: T21.11 (antibody, V domains shown)
VH: B11 VH
VL: B13 VL with S24N, N30D, M32V
notes: Gene engineered variant of 58E: humanized 58E heavy chain, light chain T21L01; also called clone T21.11
With B14, the binding result in assay [8] was “binds”.

B15: clone 58E (hybridoma antibody) (antibody, V domains shown)
VH: B13 VH
VL: B13 VL
notes: as for B7
Consider B15, for which the binding result in assay [6] is on record as “binds”.

B16: T21.09 (antibody, V domains shown)
VH: B13 VH
VL: B11 VL
notes: Gene engineered variant of 58E; also called clone T21.09
On to B16, for which the binding result in [8] is given as “binds”.

B17: T21.01 (antibody, V domains shown)
VH: B13 VH
VL: B13 VL with S24N, N30D, M32V
notes: Gene engineered variant of 58E; produced in Expi293F; also called clone T21.01
With B17, the binding result in [8] is listed as “binds”.
